Measurements reported in IntAct's records for PubMed 31515488.

B1: Coiled-coil domain-containing protein 33 (Homo sapiens), Q8N5R6-5 (parent)
chain: MGEPGPPSPPAPKAAPGLIDSFSEMNNYRRAMQKMAEDILSLRRQASILEGENRILRSRLAQQEEEEGQGKASEAQNTVSMKQKLLLSELDMKKLRDRVQHLQNELIRKNDREKELLLLYQAQQPQAALLKQYQGKLQKMKALEETVRHQEKVIEKMERVLEDRLQDRSKPPPLNRQQGKPYTGFPMLSASGLPLGSMGENLPVELYSVLLAENAKLRTELDKNRHQQAPIILQQQALPVDPGELGAGGDLTERLQETHGPGHSECTETLPAQDLLSGTSDKFNLLAKLEHAQSRILSLESQLEDSARRWGREKQDLATRLQEQEKGFRHPSNSIIIEQPVSDPPGVAPRGSGGGAGSHRTPKVTGP
B2: Heterogeneous nuclear ribonucleoprotein R (Homo sapiens), O43390 (parent)
chain: MANQVNGNAVQLKEEEEPMDTSSVTHTEHYKTLIEAGLPQKVAERLDEIFQTGLVAYVDLDERAIDALREFNEEGALSVLQQFKESDLSHVQNKSAFLCGVMKTYRQREKQGSKVQESTKGPDEAKIKALLERTGYTLDVTTGQRKYGGPPPDSVYSGVQPGIGTEVFVGKIPRDLYEDELVPLFEKAGPIWDLRLMMDPLSGQNRGYAFITFCGKEAAQEAVKLCDSYEIRPGKHLGVCISVANNRLFVGSIPKNKTKENILEEFSKVTEGLVDVILYHQPDDKKKNRGFCFLEYEDHKSAAQARRRLMSGKVKVWGNVVTVEWADPVEEPDPEVMAKVKVLFVRNLATTVTEEILEKSFSEFGKLERVKKLKDYAFVHFEDRGAAVKAMDEMNGKEIEGEEIEIVLAKPPDKKRKERQAARQASRSTAYEDYYYHPPPRMPPPIRGRGRGGGRGGYGYPPDYYGYEDYYDDYYGYDYHDYRGGYEDPYYGYDDGYAVRGRGGGRGGRGAPPPPRGRGAPPPRGRAGYSQRGAPLGPPRGSRGGRGGPAQQQRGRGSRGSRGNRGGNVGGKRKADGYNQPDSKRRQTNNQQNWGSQPIAQQPLQQGGDYSGNYGYNNDNQEFYQDTYGQQWK
B3: Lymphokine-activated killer T-cell-originated protein kinase (Homo sapiens), Q96KB5 (parent)
chain: MEGISNFKTPSKLSEKKKSVLCSTPTINIPASPFMQKLGFGTGVNVYLMKRSPRGLSHSPWAVKKINPICNDHYRSVYQKRLMDEAKILKSLHHPNIVGYRAFTEANDGSLCLAMEYGGEKSLNDLIEERYKASQDPFPAAIILKVALNMARGLKYLHQEKKLLHGDIKSSNVVIKGDFETIKICDVGVSLPLDENMTVTDPEACYIGTEPWKPKEAVEENGVITDKADIFAFGLTLWEMMTLSIPHINLSNDDDDEDKTFDESDFDDEAYYAALGTRPPINMEELDESYQKVIELFSVCTNEDPKDRPSAAHIVEALETDV
partner: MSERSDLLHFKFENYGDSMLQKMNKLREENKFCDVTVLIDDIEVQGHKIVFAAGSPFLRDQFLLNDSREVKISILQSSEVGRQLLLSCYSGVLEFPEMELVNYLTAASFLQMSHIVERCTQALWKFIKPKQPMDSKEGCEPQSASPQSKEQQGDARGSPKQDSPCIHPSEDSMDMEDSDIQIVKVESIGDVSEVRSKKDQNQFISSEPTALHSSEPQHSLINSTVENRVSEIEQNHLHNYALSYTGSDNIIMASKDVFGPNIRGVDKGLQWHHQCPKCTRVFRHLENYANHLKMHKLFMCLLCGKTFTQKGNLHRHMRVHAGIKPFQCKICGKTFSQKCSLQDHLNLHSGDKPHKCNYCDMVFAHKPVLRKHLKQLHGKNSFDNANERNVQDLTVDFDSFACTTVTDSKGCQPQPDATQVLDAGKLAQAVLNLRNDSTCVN
B4: Protein Dr1 (Homo sapiens), Q01658 (parent)
chain: MASSSGNDDDLTIPRAAINKMIKETLPNVRVANDARELVVNCCTEFIHLISSEANEICNKSEKKTISPEHVIQALESLGFGSYISEVKEVLQECKTVALKRRKASSRLENLGIPEEELLRQQQELFAKARQQQAELAQQEWLQMQQAAQQAQLAAASASASNQAGSSQDEEDDDDI
partner: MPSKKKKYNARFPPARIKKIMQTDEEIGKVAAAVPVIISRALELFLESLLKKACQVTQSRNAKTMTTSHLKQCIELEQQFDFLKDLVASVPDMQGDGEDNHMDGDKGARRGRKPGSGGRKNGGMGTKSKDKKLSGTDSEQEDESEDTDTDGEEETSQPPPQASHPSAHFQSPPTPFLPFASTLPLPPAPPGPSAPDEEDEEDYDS
B5: Zinc finger protein 512B (Homo sapiens), Q96KM6 (parent)
chain: MTDPFCVGGRRLPGSSKSGPGKDGSRKEVRLPMLHDPPKMGMPVVRGGQTVPGQAPLCFDPGSPASDKTEGKKKGRPKAENQALRDIPLSLMNDWKDEFKAHSRVKCPNSGCWLEFPSIYGLKYHYQRCQGGAISDRLAFPCPFCEAAFTSKTQLEKHRIWNHMDRPLPASKPGPISRPVTISRPVGVSKPIGVSKPVTIGKPVGVSKPIGISKPVSVGRPMPVTKAIPVTRPVPVTKPVTVSRPMPVTKAMPVTKPITVTKSVPVTKPVPVTKPITVTKLVTVTKPVPVTKPVTVSRPIVVSKPVTVSRPIAISRHTPPCKMVLLTRSENKAPRATGRNSGKKRAADSLDTCPIPPKQARPENGEYGPSSMGQSSAFQLSADTSSGSLSPGSRPSGGMEALKAAGPASPPEEDPERTKHRRKQKTPKKFTGEQPSISGTFGLKGLVKAEDKARVHRSKKQEGPGPEDARKKVPAAPITVSKEAPAPVAHPAPGGPEEQWQRAIHERGEAVCPTCNVVTRKTLVGLKKHMEVCQKLQDALKCQHCRKQFKSKAGLNYHTMAEHSAKPSDAEASEGGEQEERERLRKVLKQMGRLRCPQEGCGAAFSSLMGYQYHQRRCGKPPCEVDSPSFPCTHCGKTYRSKAGHDYHVRSEHTAPPPEEPTDKSPEAEDPLGVERTPSGRVRRTSAQVAVFHLQEIAEDELARDWTKRRMKDDLVPETARLNYTRPGLPTLNPQLLEAWKNEVKEKGHVNCPNDCCEAIYSSVSGLKAHLASCSKGAHLAGKYRCLLCPKEFSSESGVKYHILKTHAENWFRTSADPPPKHRSQDSLVPKKEKKKNLAGGKKRGRKPKERTPEEPVAKLPPRRDDWPPGCRDKGARGSTGRKVGVSKAPEK
B6: Transmembrane protein 79 (Homo sapiens), Q9BSE2 (parent)
chain: MTEQETLALLEVKRSDSPEKSSPQALVPNGRQPEGEGGAESPGAESLRVGSSAGSPTAIEGAEDGLDSTVSEAATLPWGTGPQPSAPFPDPPGWRDIEPEPPESEPLTKLEELPEDDANLLPEKAARAFVPIDLQCIERQPQEDLIVRCEAGEGECRTFMPPRVTHPDPTERKWAEAVVRPPGCSCGGCGSCGDREWLRAVASVGAALILFPCLLYGAYAFLPFDVPRLPTMSSRLIYTLRCGVFATFPIVLGILVYGLSLLCFSALRPFGEPRREVEIHRRYVAQSVQLFILYFFNLAVLSTYLPQDTLKLLPLLTGLFAVSRLIYWLTFAVGRSFRGFGYGLTFLPLLSMLMWNLYYMFVVEPERMLTATESRLDYPDHARSASDYRPRPWG
partner: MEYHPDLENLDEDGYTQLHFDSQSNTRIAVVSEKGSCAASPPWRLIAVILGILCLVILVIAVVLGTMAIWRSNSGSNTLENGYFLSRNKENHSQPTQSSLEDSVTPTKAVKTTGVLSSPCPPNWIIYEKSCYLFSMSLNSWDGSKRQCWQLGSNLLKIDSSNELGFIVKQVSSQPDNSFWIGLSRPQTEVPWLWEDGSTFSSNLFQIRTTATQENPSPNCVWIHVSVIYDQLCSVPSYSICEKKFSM
B7: Cell division cycle 7-related protein kinase (Homo sapiens), O00311 (parent)
chain: MEASLGIQMDEPMAFSPQRDRFQAEGSLKKNEQNFKLAGVKKDIEKLYEAVPQLSNVFKIEDKIGEGTFSSVYLATAQLQVGPEEKIALKHLIPTSHPIRIAAELQCLTVAGGQDNVMGVKYCFRKNDHVVIAMPYLEHESFLDILNSLSFQEVREYMLNLFKALKRIHQFGIVHRDVKPSNFLYNRRLKKYALVDFGLAQGTHDTKIELLKFVQSEAQQERCSQNKSHIITGNKIPLSGPVPKELDQQSTTKASVKRPYTNAQIQIKQGKDGKEGSVGLSVQRSVFGERNFNIHSSISHESPAVKLMKQSKTVDVLSRKLATKKKAISTKVMNSAVMRKTASSCPASLTCDCYATDKVCSICLSRRQQVAPRAGTPGFRAPEVLTKCPNQTTAIDMWSAGVIFLSLLSGRYPFYKASDDLTALAQIMTIRGSRETIQAAKTFGKSILCSKEVPAQDLRKLCERLRGMDSSTPKLTSDIQGHASHQPAISEKTDHKASCLVQTPPGQYSGNSFKKGDSNSCEHCFDEYNTNLEGWNEVPDEAYDLLDKLLDLNPASRITAEEALLHPFFKDMSL
partner: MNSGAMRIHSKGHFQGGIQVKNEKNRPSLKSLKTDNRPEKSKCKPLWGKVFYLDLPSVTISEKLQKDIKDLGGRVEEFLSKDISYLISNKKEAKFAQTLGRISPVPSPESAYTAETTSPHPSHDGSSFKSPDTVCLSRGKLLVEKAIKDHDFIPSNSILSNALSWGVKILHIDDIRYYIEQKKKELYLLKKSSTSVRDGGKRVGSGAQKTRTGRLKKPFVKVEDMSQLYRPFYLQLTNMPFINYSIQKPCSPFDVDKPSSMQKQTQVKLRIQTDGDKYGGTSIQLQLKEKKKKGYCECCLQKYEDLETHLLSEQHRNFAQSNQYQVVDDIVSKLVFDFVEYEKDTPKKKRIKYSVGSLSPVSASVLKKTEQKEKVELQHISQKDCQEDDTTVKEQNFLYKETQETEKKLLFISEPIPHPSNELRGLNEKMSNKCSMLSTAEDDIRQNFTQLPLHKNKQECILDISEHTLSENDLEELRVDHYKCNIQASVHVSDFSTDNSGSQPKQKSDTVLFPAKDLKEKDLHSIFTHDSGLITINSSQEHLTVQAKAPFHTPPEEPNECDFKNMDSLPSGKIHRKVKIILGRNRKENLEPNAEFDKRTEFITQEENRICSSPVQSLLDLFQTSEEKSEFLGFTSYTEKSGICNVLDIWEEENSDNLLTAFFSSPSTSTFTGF

Variants of: B1
Settings: with smad3_human SMAD3, P84022
Sequence of smad3_human SMAD3, P84022 (P84022 whole entry, looked up): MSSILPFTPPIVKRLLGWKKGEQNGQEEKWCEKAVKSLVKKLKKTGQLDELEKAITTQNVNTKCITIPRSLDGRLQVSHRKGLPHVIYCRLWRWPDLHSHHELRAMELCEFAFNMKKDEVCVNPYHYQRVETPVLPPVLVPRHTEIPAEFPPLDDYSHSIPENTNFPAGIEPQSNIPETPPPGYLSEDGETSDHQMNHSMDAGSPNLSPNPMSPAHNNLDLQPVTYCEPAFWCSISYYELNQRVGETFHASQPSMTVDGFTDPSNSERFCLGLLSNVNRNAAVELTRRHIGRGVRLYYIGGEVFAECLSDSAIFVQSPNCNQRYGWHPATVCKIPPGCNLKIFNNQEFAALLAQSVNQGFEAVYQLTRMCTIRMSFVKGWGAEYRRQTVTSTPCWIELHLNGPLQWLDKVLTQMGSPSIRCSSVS

| Variant | effect of a mutation on the interaction |
| --- | --- |
| M25V | with no effect |
| R30L | with no effect |
| G196R | with no effect |
| P203L | disrupting interaction strength |

Variants of: B1
Settings: with aakb2_human PRKAB2, O43741
Sequence of aakb2_human PRKAB2, O43741 (O43741 whole entry): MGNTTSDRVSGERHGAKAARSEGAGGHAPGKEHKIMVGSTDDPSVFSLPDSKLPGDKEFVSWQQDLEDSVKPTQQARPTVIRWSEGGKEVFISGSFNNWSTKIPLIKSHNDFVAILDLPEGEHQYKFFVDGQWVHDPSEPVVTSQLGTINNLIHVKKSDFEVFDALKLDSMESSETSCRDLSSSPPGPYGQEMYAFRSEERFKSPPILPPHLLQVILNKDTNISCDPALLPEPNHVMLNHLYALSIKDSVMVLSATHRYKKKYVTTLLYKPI

| Variant | effect of a mutation on the interaction |
| --- | --- |
| M25V | with no effect |
| R30L | with no effect |
| G196R | with no effect |
| P203L | with no effect |

Variants of: B1
Settings: with blk_human BLK

| Variant | effect of a mutation on the interaction |
| --- | --- |
| M25V | with no effect |
| R30L | with no effect |
| G196R | with no effect |
| P203L | with no effect |

Variants of: B1
Settings: with ptk6_human PTK6, Q13882

| Variant | effect of a mutation on the interaction |
| --- | --- |
| S73N | with no effect |

Variants of: B1
Settings: with bccip_human BCCIP

| Variant | effect of a mutation on the interaction |
| --- | --- |
| S73N | with no effect |

Variants of: B2
Settings: with anm1_human PRMT1, Q99873
Sequence of anm1_human PRMT1, Q99873 (Q99873 whole entry, looked up): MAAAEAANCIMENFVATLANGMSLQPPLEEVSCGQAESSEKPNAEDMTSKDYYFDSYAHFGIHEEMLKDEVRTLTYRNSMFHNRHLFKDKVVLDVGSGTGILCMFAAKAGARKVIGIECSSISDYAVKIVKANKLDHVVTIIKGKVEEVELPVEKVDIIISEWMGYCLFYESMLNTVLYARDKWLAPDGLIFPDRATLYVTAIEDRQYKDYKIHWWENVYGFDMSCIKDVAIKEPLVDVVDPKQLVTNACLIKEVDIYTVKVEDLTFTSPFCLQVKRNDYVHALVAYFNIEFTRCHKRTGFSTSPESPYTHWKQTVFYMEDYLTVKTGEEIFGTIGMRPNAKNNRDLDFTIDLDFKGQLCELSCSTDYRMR

| Variant | effect of a mutation on the interaction |
| --- | --- |
| S530T | with no effect |

Variants of: B3
Settings: with zbt26_human ZBTB26, Q9HCK0

| Variant | effect of a mutation on the interaction |
| --- | --- |
| K87M | with no effect |
| N107S | disrupting interaction strength |
| E220D | with no effect |

Variants of: B4
Settings: with nc2a_human DRAP1, Q14919

| Variant | effect of a mutation on the interaction |
| --- | --- |
| E171D | with no effect |

Variants of: B5
Settings: with fhl3_human FHL3, Q13643
Sequence of fhl3_human FHL3, Q13643 (Q13643 whole entry): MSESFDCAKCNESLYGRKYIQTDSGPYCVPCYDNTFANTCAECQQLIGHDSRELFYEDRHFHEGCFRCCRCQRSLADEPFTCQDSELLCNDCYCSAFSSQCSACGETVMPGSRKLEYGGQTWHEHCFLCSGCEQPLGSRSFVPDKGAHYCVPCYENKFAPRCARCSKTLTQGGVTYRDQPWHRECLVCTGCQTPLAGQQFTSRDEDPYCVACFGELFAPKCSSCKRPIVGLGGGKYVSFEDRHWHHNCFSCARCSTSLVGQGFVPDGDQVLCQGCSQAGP

| Variant | effect of a mutation on the interaction |
| --- | --- |
| A453T | with no effect |
| A408T | with no effect |

Variants of: B5
Settings: with traf1_human TRAF1, Q13077
Sequence of traf1_human TRAF1, Q13077 (Q13077 whole entry): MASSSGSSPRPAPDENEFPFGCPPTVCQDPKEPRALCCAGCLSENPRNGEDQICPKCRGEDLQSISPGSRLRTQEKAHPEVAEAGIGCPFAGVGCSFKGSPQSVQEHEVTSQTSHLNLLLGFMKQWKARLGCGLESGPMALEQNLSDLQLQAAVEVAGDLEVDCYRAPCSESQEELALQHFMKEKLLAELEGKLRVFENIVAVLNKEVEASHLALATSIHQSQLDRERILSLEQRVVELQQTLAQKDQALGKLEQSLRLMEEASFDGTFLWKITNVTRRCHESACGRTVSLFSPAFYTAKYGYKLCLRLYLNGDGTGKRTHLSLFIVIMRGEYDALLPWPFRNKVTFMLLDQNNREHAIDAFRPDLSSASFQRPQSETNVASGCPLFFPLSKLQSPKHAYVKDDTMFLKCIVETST

| Variant | effect of a mutation on the interaction |
| --- | --- |
| A453T | with no effect |
| A408T | with no effect |

Variants of: B6
Settings: with clc7a_human CLEC7A

| Variant | effect of a mutation on the interaction |
| --- | --- |
| V322I | with no effect |

Variants of: B7
Settings: with dbf4a_human DBF4, Q9UBU7

| Variant | effect of a mutation on the interaction |
| --- | --- |
| I99T | with no effect |
